Experimental data from FireProtDB (doi:10.1093/protein/10.5.575).

Settings: Bos taurus, pH 7, Absorbance, phosphate 0.1 M, reversible: yes, whole UniProt chain shown

B1: Cytochrome b5 wild type, P00171 (protein)
chain: MAEESSKAVKYYTLEEIQKHNNSKSTWLILHYKVYDLTKFLEEHPGGEEVLREQAGGDATENFEDVGHSTDARELSKTFIIGELHPDDRSKITKPSESIITTIDSNPSWWTNWLIPAISALFVALIYHLYTSEN
denaturant midpoint (higher = more stable) (30 °C, Urea): 7.1 M | Tm (Thermal): 66.2 °C | unfolding enthalpy (van 't Hoff) (Thermal): 71.3 kcal/mol
